Reference: patent US6762290, “High affinity vascular endothelial growth factor (VEGF) receptor nucleic acid ligands and inhibitors” (Gilead Sciences, Inc.)
Changes are numbered by the printed parent chain.

B1: K7 (ssRNA)
RNA: GGGAGGACGAUGCGGACGAUAACACAGGGCCUGCUUGGAUCACACUGAUUGCGCCCAGACGACUCGCCCGA
modifications: 2'-F pyrimidines
B2: K21 (ssRNA)
RNA: GGGAGGACGAUGCGGAUCAUACCGAAGAGACACGGGGCCACCAUAUCCUCACCCCCAGACGACUCGCCCGA
modifications: 2'-F pyrimidines
B3: K5 (ssRNA)
RNA: GGGAGGACGAUGCGGCAUGGGGCCUGACUGGAUCAUACCACCGCUUCCUCUGGUCAGACGACUCGCCCGA
modifications: 2'-F pyrimidines
B4: K3 (ssRNA)
RNA: B3 RNA with C47U
modifications: 2'-F pyrimidines
B5: K13 (ssRNA)
RNA: GGGAGGACGAUGCGGAACCAAUUAAGUCUGGCAAAUCUCUCUGUGCAGACGACUCGCCCGA
modifications: 2'-F pyrimidines
B6: K23 (ssRNA)
RNA: GGGAGGACGAUGCGGACACACACAUCAUAAACAUUGUCCGUUGACCAGACGACUCGCCCGA
modifications: 2'-F pyrimidines
B7: K12 (ssRNA)
RNA: GGGAGGACGAUGCGGAAACGGAAGAAUUGGAGACCGACGUCGACCUCUUGGCCCCAGACGACUCGCCCGA
modifications: 2'-F pyrimidines
B8: K10 (ssRNA)
RNA: GGGAGGACGAUGCGGUUGAUCGAGGUUCUAAGGCCUAUUUCCUGACUUUCUCCCCCAGACGACUCGCCCGA
modifications: 2'-F pyrimidines
B9: K11 (ssRNA)
RNA: B8 RNA with G32A
modifications: 2'-F pyrimidines
B10: K4 (ssRNA)
RNA: GGGAGGACGAUGCGGAGGUGCUCCUUUGGAACUUCGUAUUUGUCUGCUCCUGGUCAGACGACUCGCCCGA
modifications: 2'-F pyrimidines
B11: K1 (ssRNA)
RNA: GGGAGGACGAUGCGGGGCCUGUUUGGAUCAUACCGAUCGUCAAUCCAAGAGUGGUCAGACGACUCGCCCGA
modifications: 2'-F pyrimidines
B12: K2 (ssRNA)
RNA: B11 RNA with A47U, G49A
modifications: 2'-F pyrimidines

Columns and labels:
[1] = target: T1, VEGFR2 (KDR) extracellular domain/Fc (Homo sapiens, UniProt P35968 P35968:20-764); test: filter; conditions: tags: C-terminal human IgG1 Fc fusion with Factor Xa site and His6; R&D Systems; NSO mouse myeloma cells; chain copies: 2 (stated, disulfide-linked homodimer)
T1 sequence (P35968 20-764, one chain of several): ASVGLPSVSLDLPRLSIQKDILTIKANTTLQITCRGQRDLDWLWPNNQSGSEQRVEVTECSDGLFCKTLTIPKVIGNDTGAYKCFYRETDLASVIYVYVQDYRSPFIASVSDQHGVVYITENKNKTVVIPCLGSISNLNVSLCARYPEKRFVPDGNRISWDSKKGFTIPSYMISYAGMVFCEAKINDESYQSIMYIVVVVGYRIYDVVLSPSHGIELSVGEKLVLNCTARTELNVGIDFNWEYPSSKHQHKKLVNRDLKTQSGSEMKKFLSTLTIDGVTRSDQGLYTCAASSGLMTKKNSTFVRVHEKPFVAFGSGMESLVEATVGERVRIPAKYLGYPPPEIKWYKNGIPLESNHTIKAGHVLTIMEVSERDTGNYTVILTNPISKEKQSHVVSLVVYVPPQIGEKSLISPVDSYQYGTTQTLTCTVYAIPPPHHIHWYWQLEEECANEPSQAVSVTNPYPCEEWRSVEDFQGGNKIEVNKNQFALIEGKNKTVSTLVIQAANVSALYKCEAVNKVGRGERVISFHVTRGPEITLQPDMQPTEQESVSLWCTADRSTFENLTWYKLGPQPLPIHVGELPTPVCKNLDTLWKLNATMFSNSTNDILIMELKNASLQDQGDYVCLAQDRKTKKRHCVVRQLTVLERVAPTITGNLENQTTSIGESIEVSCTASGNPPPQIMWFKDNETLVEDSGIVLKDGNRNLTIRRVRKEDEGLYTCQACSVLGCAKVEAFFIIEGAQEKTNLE

[2] = target: T1, VEGFR2 (KDR) extracellular domain/Fc; test: filter; circularly permuted family member; conditions: tags: C-terminal human IgG1 Fc fusion with Factor Xa site and His6; R&D Systems; NSO mouse myeloma cells; chain copies: 2 (stated, disulfide-linked homodimer)
[3] = target: T2, VEGF receptors on HUVEC (VEGFR2/KDR) (Homo sapiens, UniProt P35968 P35968:20-1356); test: competition; inhibition of 125I-VEGF-165 binding to HUVEC
T2 sequence (P35968 20-1356, one chain of several): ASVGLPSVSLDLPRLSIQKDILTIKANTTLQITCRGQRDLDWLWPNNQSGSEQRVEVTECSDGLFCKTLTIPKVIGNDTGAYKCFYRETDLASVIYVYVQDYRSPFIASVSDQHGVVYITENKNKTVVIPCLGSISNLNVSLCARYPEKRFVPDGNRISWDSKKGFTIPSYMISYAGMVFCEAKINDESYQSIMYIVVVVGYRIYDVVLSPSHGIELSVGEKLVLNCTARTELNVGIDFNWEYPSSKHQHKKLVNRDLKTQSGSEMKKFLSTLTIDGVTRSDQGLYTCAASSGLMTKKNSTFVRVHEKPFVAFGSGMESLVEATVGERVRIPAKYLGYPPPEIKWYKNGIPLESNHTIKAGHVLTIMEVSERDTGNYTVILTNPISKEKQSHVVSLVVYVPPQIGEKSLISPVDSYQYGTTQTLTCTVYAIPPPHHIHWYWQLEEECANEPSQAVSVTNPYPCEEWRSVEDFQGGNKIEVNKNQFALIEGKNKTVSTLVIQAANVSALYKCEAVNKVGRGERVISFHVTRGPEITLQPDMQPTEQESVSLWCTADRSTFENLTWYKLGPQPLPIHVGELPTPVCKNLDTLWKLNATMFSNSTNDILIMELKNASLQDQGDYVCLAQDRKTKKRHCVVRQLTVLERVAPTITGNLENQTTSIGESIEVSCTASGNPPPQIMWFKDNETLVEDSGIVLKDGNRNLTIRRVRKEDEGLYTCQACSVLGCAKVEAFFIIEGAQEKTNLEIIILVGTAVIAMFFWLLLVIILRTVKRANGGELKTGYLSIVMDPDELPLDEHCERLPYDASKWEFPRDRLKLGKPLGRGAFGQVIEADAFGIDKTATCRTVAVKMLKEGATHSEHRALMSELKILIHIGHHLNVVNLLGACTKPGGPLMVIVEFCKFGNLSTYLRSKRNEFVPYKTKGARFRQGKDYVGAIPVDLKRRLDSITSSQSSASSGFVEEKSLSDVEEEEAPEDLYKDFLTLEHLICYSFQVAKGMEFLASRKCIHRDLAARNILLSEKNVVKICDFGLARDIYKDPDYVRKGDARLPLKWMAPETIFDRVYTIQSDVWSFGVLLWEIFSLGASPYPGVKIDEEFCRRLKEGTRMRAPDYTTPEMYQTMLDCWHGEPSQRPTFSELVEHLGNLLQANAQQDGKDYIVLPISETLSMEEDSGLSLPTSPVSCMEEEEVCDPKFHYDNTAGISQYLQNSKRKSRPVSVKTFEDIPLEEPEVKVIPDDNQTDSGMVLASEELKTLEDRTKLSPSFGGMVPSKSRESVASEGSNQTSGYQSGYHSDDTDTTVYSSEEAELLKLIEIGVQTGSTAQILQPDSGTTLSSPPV
Method: (§1) We next examined whether a group of representative aptamers was able to inhibit the binding of [125]I-VEGF-165 to VEGF receptors expressed on HUVECs. Cells were seeded in 96-well plates at a density of about 10,000 cells/well and maintained until confluent. Culture medium was then replaced with growth factor deficient medium (MEM, 5% heat inactivated fetal bovine serum, 1 µg/ml heparin) for 3–4 hours. Cells were then washed with Dulbecco's phosphate-buffered saline (DPBS) (containing 1 mM CaCl_2, 1 mM MgCl_2 and 0.1% bovine serum albumin) followed by the addition of 100 µl/well of DPBS. [125]I-VEGF-165 ([…]) in the presence of varying amounts of aptamers (0.001–1000 nM) was then added to cells for 2 hours at room temperature. Unbound [125]I-VEGF-165 was then removed by washing with DPBS and the cells were lysed with Triton X-100. Lysates were harvested onto glass fiber filters plates and processed for scintillation counting. Aptamers K1, K10, K17 and K21 were tested. […] Thus, among the VEGFR2 aptamers tested, both receptor binding antagonists and non-antagonists have been identified.

[4] = target: T1, VEGFR2 (KDR) extracellular domain/Fc; test: filter; Table 2 prints CCACGGC where listing has ccaccgc; conditions: tags: C-terminal human IgG1 Fc fusion with Factor Xa site and His6; R&D Systems; NSO mouse myeloma cells; chain copies: 2 (stated, disulfide-linked homodimer)
[5] = target: T1, VEGFR2 (KDR) extracellular domain/Fc; test: filter; 30N clone; conditions: tags: C-terminal human IgG1 Fc fusion with Factor Xa site and His6; R&D Systems; NSO mouse myeloma cells; chain copies: 2 (stated, disulfide-linked homodimer)
[6] = target: T2, VEGF receptors on HUVEC (VEGFR2/KDR); test: competition; inhibition of 125I-VEGF-165 binding to HUVEC, DPBS with Ca, Mg, room temperature
Method: as §1

Binder | Kd [1] [nM] | also measured
B1 | 0.46 | –
B2 | – | Kd [2]: 0.26 nM; IC50 [3]: 79 nM
B3 | 0.44 | –
B4 | – | Kd [4]: 0.51 nM
B5 | – | Kd [5]: 0.75 nM
B6 | – | Kd [5]: 2.2 nM
B7 | 15.4 | –
B8 | 0.47 | IC50 [6]: 1 nM
B9 | 0.61 | –
B10 | 0.28 | –
B11 | 0.07 | –
B12 | 0.27 | –
